Laboratory results reported in the supplement of paper PMC9112550, “Optimization of the antimicrobial peptide Bac7 by deep mutational scanning” (BMC Biology, 2022).

tested on: Escherichia coli TOP10; assay: shrunken log2 fold change of peptide-encoding DNA abundance (4.5 h post-induction vs induction); higher = less antimicrobial activity (less host growth inhibition); settings: time post-induction: 4.5 h; library: site-saturation at positions 5, 18, 19, 20
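Also: peptides expressed intracellularly from a pBAD plasmid library in pooled LB shake-flask culture, induced with 0.3% L-arabinose, DNA abundance read by NGS, three biological replicates, DESeq2 with apeglm shrinkage.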

Sequence | shrunken log2 fold change
RRIRVRPPRLPRPRPRPVRHPRP | 0.0933
RRIRVRPPRLPRPRPRPVSYPRP | -0.51
RRIRVRPPRLPRPRPRPVWMPRP | 0.52
RRIRVRPPRLPRPRPRPVWTPRP | 0.155
RRIRVRPPRLPRPRPRPVYFPRP | -0.334
RRIRVRPPRLPRPRPRPVYRPRP | 0.132
RRIRVRPPRLPRPRPRPWAKPRP | -0.00459
RRIRVRPPRLPRPRPRPWCNPRP | 3.15
RRIRVRPPRLPRPRPRPWCPPRP | 0.0662
RRIRVRPPRLPRPRPRPWCYPRP | -0.366
RRIRVRPPRLPRPRPRPWDIPRP | -0.235
RRIRVRPPRLPRPRPRPWFAPRP | -0.191
RRIRVRPPRLPRPRPRPWFLPRP | -0.386
RRIRVRPPRLPRPRPRPWFPPRP | -0.641
RRIRVRPPRLPRPRPRPWGIPRP | -0.265
RRIRVRPPRLPRPRPRPWGVPRP | -0.15
RRIRVRPPRLPRPRPRPWGWPRP | 0.331
RRIRVRPPRLPRPRPRPWHLPRP | -0.191
RRIRVRPPRLPRPRPRPWINPRP | -0.565
RRIRVRPPRLPRPRPRPWKRPRP | -0.1
RRIRVRPPRLPRPRPRPWLCPRP | -0.144
RRIRVRPPRLPRPRPRPWMLPRP | -0.2
RRIRVRPPRLPRPRPRPWMSPRP | -0.076
RRIRVRPPRLPRPRPRPWNFPRP | -0.102
RRIRVRPPRLPRPRPRPWNGPRP | -0.277

Sequence | shrunken log2 fold change
RRIRVRPPRLPRPRPRPWNVPRP | -0.0441
RRIRVRPPRLPRPRPRPWNYPRP | -0.0949
RRIRVRPPRLPRPRPRPWQSPRP | 0.0169
RRIRVRPPRLPRPRPRPWQVPRP | -0.161
RRIRVRPPRLPRPRPRPWSIPRP | -0.0192
RRIRVRPPRLPRPRPRPWSMPRP | -0.014
RRIRVRPPRLPRPRPRPWTIPRP | -0.281
RRIRVRPPRLPRPRPRPWVDPRP | 0.0379
RRIRVRPPRLPRPRPRPWYFPRP | -0.619
RRIRVRPPRLPRPRPRPWYYPRP | 0.0171
RRIRVRPPRLPRPRPRPYAAPRP | -0.3
RRIRVRPPRLPRPRPRPYAIPRP | -0.033
RRIRVRPPRLPRPRPRPYARPRP | -0.243
RRIRVRPPRLPRPRPRPYCMPRP | -0.898
RRIRVRPPRLPRPRPRPYEIPRP | -0.14
RRIRVRPPRLPRPRPRPYFQPRP | -0.649
RRIRVRPPRLPRPRPRPYGGPRP | -0.374
RRIRVRPPRLPRPRPRPYGHPRP | -0.0167
RRIRVRPPRLPRPRPRPYGLPRP | -0.00518
RRIRVRPPRLPRPRPRPYGYPRP | -1.16
RRIRVRPPRLPRPRPRPYIWPRP | -0.504
RRIRVRPPRLPRPRPRPYKAPRP | -0.0443
RRIRVRPPRLPRPRPRPYKEPRP | 0.0231
RRIRVRPPRLPRPRPRPYKHPRP | -0.81
RRIRVRPPRLPRPRPRPYKQPRP | -0.00648

Sequence | shrunken log2 fold change
RRIRVRPPRLPRPRPRPYLAPRP | -0.413
RRIRVRPPRLPRPRPRPYNMPRP | -0.979
RRIRVRPPRLPRPRPRPYNPPRP | -0.492
RRIRVRPPRLPRPRPRPYNQPRP | -0.844
RRIRVRPPRLPRPRPRPYNSPRP | -0.0974
RRIRVRPPRLPRPRPRPYPDPRP | -0.293
RRIRVRPPRLPRPRPRPYQWPRP | -0.175
RRIRVRPPRLPRPRPRPYRAPRP | -0.201
RRIRVRPPRLPRPRPRPYRTPRP | -0.19
RRIRVRPPRLPRPRPRPYVEPRP | -0.132
RRIRVRPPRLPRPRPRPYWFPRP | -0.396
RRIRVRPPRLPRPRPRPYWYPRP | -0.964
RRIRVRPPRLPRPRPRPYYGPRP | -0.203
RRIRVRPPRLPRPRPRPYYIPRP | -0.284
RRIRVRPPRLPRPRPRPYYMPRP | -0.997
RRIRVRPPRLPRPRPRPYYTPRP | -1.39
RRIRVRPPRLPRPRPRPYYWPRP | -0.0974
RRIRWRPPRLPRPRPRPACIPRP | 0.0736
RRIRWRPPRLPRPRPRPAECPRP | -0.0444
RRIRWRPPRLPRPRPRPAHRPRP | 0.49
RRIRWRPPRLPRPRPRPAIHPRP | 0.039
RRIRWRPPRLPRPRPRPALCPRP | 0.331
RRIRWRPPRLPRPRPRPALIPRP | 0.0212
RRIRWRPPRLPRPRPRPANEPRP | 0.134
RRIRWRPPRLPRPRPRPAPVPRP | 0.433

Sequence | shrunken log2 fold change
RRIRWRPPRLPRPRPRPARVPRP | 0.413
RRIRWRPPRLPRPRPRPASTPRP | 0.349
RRIRWRPPRLPRPRPRPAVMPRP | 0.0971
RRIRWRPPRLPRPRPRPAVVPRP | 0.0979
RRIRWRPPRLPRPRPRPAWSPRP | 0.265
RRIRWRPPRLPRPRPRPAWWPRP | 0.691
RRIRWRPPRLPRPRPRPCAEPRP | 0.618
RRIRWRPPRLPRPRPRPCFCPRP | 0.126
RRIRWRPPRLPRPRPRPCFSPRP | -0.176
RRIRWRPPRLPRPRPRPCGDPRP | 0.183
RRIRWRPPRLPRPRPRPCGPPRP | 0.183
RRIRWRPPRLPRPRPRPCGQPRP | 0.137
RRIRWRPPRLPRPRPRPCGWPRP | 0.314
RRIRWRPPRLPRPRPRPCILPRP | -0.39
RRIRWRPPRLPRPRPRPCLGPRP | 0.0309
RRIRWRPPRLPRPRPRPCMDPRP | -0.18
RRIRWRPPRLPRPRPRPCMFPRP | -0.244
RRIRWRPPRLPRPRPRPCNFPRP | -0.464
RRIRWRPPRLPRPRPRPCNHPRP | -0.427
RRIRWRPPRLPRPRPRPCNTPRP | -0.169
RRIRWRPPRLPRPRPRPCNYPRP | -0.2
RRIRWRPPRLPRPRPRPCSNPRP | -0.0711
RRIRWRPPRLPRPRPRPCSPPRP | -0.106
RRIRWRPPRLPRPRPRPCTFPRP | -0.72
RRIRWRPPRLPRPRPRPCTTPRP | -0.183

Sequence | shrunken log2 fold change
RRIRWRPPRLPRPRPRPCTWPRP | -0.217
RRIRWRPPRLPRPRPRPCVKPRP | -0.0416
RRIRWRPPRLPRPRPRPCWFPRP | 0.0945
RRIRWRPPRLPRPRPRPCWNPRP | 0.11
RRIRWRPPRLPRPRPRPCYAPRP | -0.345
RRIRWRPPRLPRPRPRPCYTPRP | -0.382
RRIRWRPPRLPRPRPRPDAFPRP | 0.0334
RRIRWRPPRLPRPRPRPDASPRP | 0.364
RRIRWRPPRLPRPRPRPDCKPRP | -0.0137
RRIRWRPPRLPRPRPRPDCWPRP | 0.967
RRIRWRPPRLPRPRPRPDECPRP | -0.012
RRIRWRPPRLPRPRPRPDEEPRP | 0.215
RRIRWRPPRLPRPRPRPDEYPRP | -0.0763
RRIRWRPPRLPRPRPRPDFHPRP | -0.239
RRIRWRPPRLPRPRPRPDGPPRP | 0.199
RRIRWRPPRLPRPRPRPDIPPRP | -0.367
RRIRWRPPRLPRPRPRPDLMPRP | 0.325
RRIRWRPPRLPRPRPRPDLPPRP | 0.0222
RRIRWRPPRLPRPRPRPDMQPRP | 0.337
RRIRWRPPRLPRPRPRPDPCPRP | -0.026
RRIRWRPPRLPRPRPRPDPEPRP | 0.159
RRIRWRPPRLPRPRPRPDPSPRP | -0.0349
RRIRWRPPRLPRPRPRPDSPPRP | 0.0588
RRIRWRPPRLPRPRPRPDTLPRP | -0.134
RRIRWRPPRLPRPRPRPDTVPRP | -0.0246

Sequence | shrunken log2 fold change
RRIRWRPPRLPRPRPRPDYEPRP | -0.0912
RRIRWRPPRLPRPRPRPDYHPRP | -0.219
RRIRWRPPRLPRPRPRPDYMPRP | -0.0885
RRIRWRPPRLPRPRPRPEAKPRP | 0.0319
RRIRWRPPRLPRPRPRPECFPRP | 0.671
RRIRWRPPRLPRPRPRPECIPRP | 0.872
RRIRWRPPRLPRPRPRPEDAPRP | 0.00499
RRIRWRPPRLPRPRPRPEDCPRP | -0.00079
RRIRWRPPRLPRPRPRPEDSPRP | 0.769
RRIRWRPPRLPRPRPRPEERPRP | 0.0923
RRIRWRPPRLPRPRPRPEFGPRP | 0.393
RRIRWRPPRLPRPRPRPEFNPRP | 0.609
RRIRWRPPRLPRPRPRPEGGPRP | 0.567
RRIRWRPPRLPRPRPRPEGIPRP | -0.00186
RRIRWRPPRLPRPRPRPEGPPRP | 0.438
RRIRWRPPRLPRPRPRPEGWPRP | 1.39
RRIRWRPPRLPRPRPRPEHSPRP | 0.114
RRIRWRPPRLPRPRPRPEIPPRP | -0.142
RRIRWRPPRLPRPRPRPEKEPRP | 0.0112
RRIRWRPPRLPRPRPRPEKLPRP | 0.225
RRIRWRPPRLPRPRPRPEKPPRP | 2.12
RRIRWRPPRLPRPRPRPEMNPRP | 0.753
RRIRWRPPRLPRPRPRPENKPRP | -0.13
RRIRWRPPRLPRPRPRPENNPRP | -0.0683
RRIRWRPPRLPRPRPRPENWPRP | 0.254
